Residue numbers refer to the chain shown, from its start. Numbers in names are those of the source.

In patent US20100325744A1 (published 2010) one finds EC50 data, which are given here for four proteins.

The series concerns the molecule itself. Description: monomer to dimer conversion (% monomer vs concentration); self-association.

B1: L236V (protein)
chain: ASTKGPSVFPLAPCSRSTSESTAALGCLVKDYFPEPVTVSWNSGALTSGVHTFPAVLQSSGLYSLSSVVTVPSSSLGTKTYTCNVDHKPSNTKVDKRVAPEFLGGPSVFLFPPKPKDTLMISRTPEVTCVVVDVSQEDPEVQFNWYVDGVEVHNAKTKPREEQFNSTYRVVSVLTVLHQDWLNGKEYKCKVSNKGLPSSIEKTISKAKGQPREPQVYTLPPSQEEMTKNQVSLTCVVKGFYPSDIAVEWESNGQPENNYKTTPPVLDSDGSFFLYSRLTVDKSRWQEGNVFSCSVMHEALHNHYTQKSLSLSLGK
For B1, the EC50 turned out to be 2.16 µM.

B2: Y275A (protein)
chain: B1 chain with V236L, Y275A
In the case of B2, the EC50 amounted to 2.19 µM.

B3: F273A (protein)
chain: B1 chain with V236L, F273A
With B3, the EC50 worked out at 3.06 µM.

B4: WT (protein)
chain: B1 chain with V236L
B4 returned an EC50 of 0.039 µM.
